Measured values published in patent US20250027068.

Each protein was assayed against pooled human IgG.

| Protein | Enzyme Activity Endpoint Assay: Fab′2 | Enzyme Activity Endpoint Assay: Fc | Enzyme Activity Endpoint Assay: IgG | Enzyme Activity Endpoint Assay: scIgG |
| --- | --- | --- | --- | --- |
| PRT-37 (protein) MANQEIRYSEVTPYHVTSVWTKGVTPPANFTQGEDVFHAPYVANQGWYDITKTFNGKDDLLCGAATAGNMLHWWFDQNKDQIKRYLEEHPEKQKINFNGEQMFDVKEAIDTKNHQLDSKLFEYFKEKAFPYLSTKHLGVFPDHVIDMFINGYRLSLTNHGPTPVKEGSKDPRGGIFDAVFTRGDQSKLLTSRHDFKEKTLKEISDLIKKELTEGKALGLSHTYANVRINHVINLWGADFDSNGNLKAIYVTDSDSNASIGMKKYFVGVNSAGKVAISAKEIKEDNIGAQVLGLFTLSTGQDSWNQTN | 4 ng/µL | 79 ng/µL | 23 ng/µL | 69 ng/µL |
| PRT-38 (protein) MANQEIRYSEVTPYHVTSVWTKGVTPPANFTQGEDVFHAPYVANQGWYDITKTFNGKDDLLCGAATAGNMLHWWFDQNKDQIKRYLEEHPEKQKINFNGEQMFDVKEAIDTKNHQLDSKLFEYFKEKAFPYLSTKHLGVFPDHVIDMFINGYRLSLTNHGPTPVKEGSKDPRGGIFDAVFTRGDQSKLLTSRHDFKEKNLKEISDLIKKELTEGKALGLSHTYANVRINHVINLWGADFDSNGNLEAIYVTDSDSNASIGMKKYFVGVNSAGKVAISAKEIKEDNIGAQVLGLFTLSTGQDSWNQTN | 46 ng/µL | 124 ng/µL | 14 ng/µL | 15 ng/µL |
| PRT-39 (protein) MANQEIRYSEVTPYHVTSVWTKGVTPPANFTQGEDVFHAPYVANQGWYDITKTFNGKDDLLCGAATAGNMLHWWFDQNKDQIKRYLEEHPEKQKINFNGEQMFDVKEAIDTKNHQLDSKLFEYFKEKAFPYLSTKHLGVFPDHVIDMFINGYRLSLTNHGPTPVKEGSKDPRGGIFDAVFTRGDQSKLLTSRHDFKEKNLKEISDLIKQELTEGKALGLSHTYANVRINHVINLWGADFDSNGNLKAIYVTDSDSNASIGMKKYFVGVNSAGKVAISAKEIKEDNIGAQVLGLFTLSTGQDSWNQTN | 39 ng/µL | 116 ng/µL | 9 ng/µL | 19 ng/µL |
| PRT-589 (protein) MRNQTTTYSEVTPSHITSVWTKGVTPPEQFIQGEDVFHAPYIANQGWYDITKTFNGKDDLLCGAATAGNMLHWWFDQNKEQIENYLKKHPEKQKINFNNEEMFDVREAINTKDSQTDSALFSYFKDKAFPYLSAKHLGVFPDHVIDMFINGYRLSLTNHDKTDVNRGTKDPRGGIFDAVFTRGDQSKLLTARHDFKNKTLKEISDLIKQELTEGKALGLSHTYANVRINHVINLWGADFDAEGNLEAIYVTDSDSNASIGMKKYYVGVNSAGKVAISAKKIEGDNIGAQVLGLFTLSTGQDIWQQTNLEHHHHHH | 863 ng/µL | 352 ng/µL | 0 ng/µL | 0 ng/µL |
| PRT-277 (protein) MVTSVWTKGVTPPTDFIYGEDVLHAPYKAGQGWYDITKLFNGKDNLLCGAATAGNMLHWWFDQNKEQIENYLKKHPEKQKIIFNNQELFDLKAAIDTKDSQLDSKLFEYFLEKAFPNLSTKHLGVFPDHVIDMFINGYRLSLLNHGPTPVKRGSKDKRGGIFDAVFTRGVQSKLLTNRHDLKNKTLKEISDLIKQELTEGKALGISHTYANGRINHVINLWGADFDAEGNLEAIAVTDSDTNASIGMKKYFVGVNSSGKVAISAKEIEEDNIGAQVLGLFTLSTGQDIWNQTN | 19 ng/µL | 160 ng/µL | 401 ng/µL | 705 ng/µL |
| PRT-285 (protein) MVTSVWTKGVTPPAKFTQGEDVFHAPYDANQGWYDITKTFNGKDDLLCGAATAGNMLHWWFDQNKEKIEAYLKKHPDKQKIMFGDQELLDVRKVINTKGDQTNSELFNYFRDKAFPGLSARRIGVMPDLVLDMFINGYYLNVYKTQTTDVNRTYQEKDRRGGIFDAVFTRGDQSKLLTSRHDFKEKNLKEISDLIKKELTEGKALGLSHTYANVRISHVINLWGADFDSNGNLKAIYVTDSDSNASIGMKKYGVGVNSAGKVAISAKEIKEDNIGAQVLGLFTLSTGQDSWNQTN | 0 ng/µL | 0 ng/µL | 1320 ng/µL | 0 ng/µL |
| PRT-529 (protein) MANQEIRYSEETPKTITSVWTKGVTPPTDFIKNEDVLHAPYIANQGWYDITKTFNGKDDLLCGAATAGNMLHWWFDQNKEEIENYLKKHPEKQKINFNGEQMFDVKEAIDTKDSQTDSALFEYFKDKAFPNLSTKHLGVMPDLVLDMFINGYYLSLGKHGPTPVKRGTKDPRGGIFDAVFTRGDQTKLLTARHDFKEKTLNEISDLIKQELTEGKALALSHTYANVRINHVINLWGADFNSEGNLEAIYVTDSDSNASIGMKKYYVGVNAAGKVAISAKEIEGDNIGAQVLGLFTLSTGQDIWEQTNLEHHHHHH | 0 ng/µL | 177 ng/µL | 508 ng/µL | 350 ng/µL |
| PRT-552 (protein) MANQEIRYSEETPKTITSVWTKGVTPPTDFIQNEDVLHAPYIANQGWYDITKTFNGKDDLLCGAATAGNMLHWWFDQNKEEIENYLKKHPEKQKINFNGEQMFDVKEAIDTKDSQTDSALFEYFKDKAFPYLSTKHLGVFPDHVIDMFINGYRLSLTNHGPTPVKRGTKDPRGGIFDAVFTRGDQSKLLTARHDFKEKTLNEISDLIKQELTEGKALGLSHTYANVRINHVINLWGADFNSEGNLEAIYVTDSDSNASIGMKKYYVGVNAAGKVAISAKEIEGDNIGAQVLGLFTLSTGQDIWNQTNLEHHHHHH | 439 ng/µL | 294 ng/µL | 45 ng/µL | 264 ng/µL |
| PRT-558 (protein) MANQEIRYSEETPSTITSIWTKGVTPPTQFIQNEDVLHAPYIANQGWYDITKTFNGKDDLLCGAATAGNMLHWWFDQNKTEIENYLTKHPEKQKINFNGEQMFDVKEAIDTKDSQTDSALFSYFKDKAFPYLSTKHLGVFPDHVIDMFINGYRLSLTNHGPTPVKRGTKDPRGGIFDAVFTRGDQTKLLTARHDFKEKTLNEISDLIKQELTEGKALGLSHTYANVRINHVINLWGADFNSEGNLEAIYVTDSDSNASIGMKKYYVGVNAAGKVAISAKEIEGDNIGAQVLGLFTLSTGQDIWQQTNLEHHHHHH | 700 ng/µL | 281 ng/µL | 0 ng/µL | 0 ng/µL |
| PRT-597 (protein) MANQEIRYSEETPSTITSVWTKGVTPPTDFIQNEDVLHAPYIANQGWYDITKTFNGKDDLLCGAATAGNMLHWWFDQNKEQIENYLKKHPEKQKINFNGEQMFDVKEAIDTKDSQTDSALFEYFKDKAFPYLSTKHLGVFPDHVIDMFINGYRLSLTNHGPTPVKRGTKDPRGGIFDAVFTRGDQSKLLTSRHDFKEKTLNEISDLIKQELTEGKALGLSHTYANVRINHVINLWGADFNANGNLEAIYVTDSDSNASIGMKKYYVGVNSAGKVAISAKEIEGDNIGAQVLGLFTLSTGQDIWNQTNLEHHHHHH | 603 ng/µL | 315 ng/µL | 0 ng/µL | 0 ng/µL |
| PRT-601 (protein) MANQEIRYSEETPSTVTSVWTKGVTPPTDFIQNEDVLHAPYIANQGWYDITKTFNGKDDLLCGAATAGNMLHWWFDQNKEQIKNYLKKHPEKQKINFNGEQMFDVKEAIDTKNHQLDSALFEYFKDKAFPYLSTKHLGVFPDHVIDMFINGYRLSLTNHGPTPVKRGTKDPRGGIFDAVFTRGDQSKLLTSRHDFKEKNLNEISDLIKKELTEGKALGLSHTYANVRINHVINLWGADFNANGNLEAIYVTDSDSNASIGMKKYFVGVNSAGKVAISAKEIKGDNIGAQVLGLFTLSTGQDSWNQTNLEHHHHHH | 720 ng/µL | 529 ng/µL | 0 ng/µL | 0 ng/µL |
| PRT-579 (protein) MANQEIRYSKATPSHITSVWTKGVTPPENFIYNEDVLHAPYLPNQGWYDITKTFNGKDDLLCGAATAGNMLHWWFDQNKEQIERYLKEHPEKQKINFNGEQMFDVKEAIDTKDSQTNSKLFEYFKDKAFPYLSTKHLGVFPDHVIDMFINGYRLSLTNHGPTPVKEQNKDPRGGIFDAVFTRGDQSKLLTSRHDFKEKTLNEISQLIKQELTEGKALGLSHTYANVRINHVINLWGADFNAEGNLEAIYVTDSDSNASIGMKKYYVGVNSAGKVAISAKEIEGDNIGAQVLGLFTLSTGQDIWQQTNLEHHHHHH | 816 ng/µL | 450 ng/µL | 0 ng/µL | 0 ng/µL |
| PRT-539 (protein) MANQEIRYSKNENPNVTIKWVHGIGEPTQAEKEKIEFYWYETNTTKFFNNRKVTHLGDSNQCWAKTASNMLHWWFEQNKENINKYIEKKNITGKINFNGEQMFDVKEGIDDNQEKEKSYIANTFRTKKAHNLSTKHKGDYIISGLAWYLYGLNNFKNAHGPTPVKKKPKFYGPALFKDVFNRGDGNTPIKEETDFKEYTKKEFEDILKEALDSKKAIGINIYGSNVGYGHAITLWGAAFDEDNNIIAIYVVDNNFKFENRIFPYGIWYEKEGRPYLFNYEINSFVKNRYVGEITTLDKGEAQWQETNLEHHHHHH | 0 ng/µL | 0 ng/µL | 1400 ng/µL | 0 ng/µL |
| PRT-40 (protein) MANQEIRYSEVTPYHVTSVWTKGVTPPANFTQGEDVFHAPYVANQGWYDITKTFNGKDDLLCGAATAGNMLHWWFDQNKDQIKRYLEEHPEKQKINFNGEQMFDVKEAIDTKNHQLDSKLFEYFKEKAFPYLSTKHLGVFPDHVLDMFINGYRLSLTNHGPTPVKEGSKDPRGGIFDAVFTRGDQSKLLTSRHDFKEKNLKEISDLIKKELTEGKALGLSHTYANVRINHVINLWGADFDSNGNLKAIYVTDSDSNASIGMKKYFVGVNSAGKVAISAKEIKEDNIGAQVLGLFTLSTGQDSWNQTN | 42 ng/µL | 108 ng/µL | 14 ng/µL | 13 ng/µL |
